These results are taken from the DeepSol protein solubility set.

A short description of the series: soluble on expression in E. coli; label from the status in PepcDB or PDB records.
In the case of “MTMMTATQALSVNPATGQTLAAMPWANAQEIEHALSLAASGFKKWKMTSVAQRAQTLRDIGQALRAHAEEMAQCITREMGKPIKQARAEVTKSAALCDWYAEHGPAMLNPEPTLVENQQAVIEYRPLGVILAIMPWNFPLWQVLRGAVPILLAGNSYLLKHAPNVTGCAQMIARILAEAGTPAGVYGWVNANNEGVSQMINDPRIAAVTVTGSVRAGAAIGAQAGAALKKCVLELGGSDPFIVLNDADLELAVKAAVAGRYQNTGQVCAAAKRFIVEEGIAQAFTDRFVAAAAALKMGDPLVEENDLGPMARFDLRDELHQQVQASVAEGARLLLGGEKIAGEGNYYAATVLADVTPDMTAFRQELFGPVAAITVAKDAAHALALANDSEFGLSATIFTADDTLAAEMAARLECGGVFINGYSASDARVAFGGVKKSGFGRELSHFGLHEFCNVQTVWKNRV”, the “soluble on expression in E. coli” value is on record as “soluble”.
As to “MSLESILDVLSVMYINAQLPREQRHRWRLLFSSELHGHSFSQLCGHITHRGPCVAVLEDHDKHVFGGFASCSWEVKPQFQGDNRCFLFSICPSMAVYTHTGYNDHYMYLNHGQQTIPNGLGMGGQHNYFGLWVDVDFGKGHSRAKPTCTTYNSPQLSAQENFQFDKMEVWAVGDPSEEQLAKGNKSILDADPEAQALLEISGHSRHSEGLREVPDDEGHHHHHH”, the “soluble on expression in E. coli” value is listed as “not soluble”.
For “MLFEDEVGETPGGESYATVVNSRLSELLKRDRIVALLTNPDEVELIEQIECINYKPSISGTGGFVFFVHGDRKTYKILDTDRLALWEDTAATKDVRMSEETRLRFDQNNHLQVSKAKLALDHNGFTLYENTATLARCRRHNKKVVYVLRNGHQYGHGLIMYQYVKPGAHPDPLHQTVQLMTDAWFDILPPDIRMVVYYLLKYNHADETARIVHREHSVYLSRMKAGRPPPPSTSACTS” the value was “not soluble”; for “MREYRITAEEGHPRIDVFLAGRPEIGLSRSRIQALIDEGQVTLNGAMPKARQAVNPGDVIVVRVPDPEPMELVPEDIPLDIVYEDEDILVVNKQRGLVVHPAAGHWTGTLVHALLDKVDDLEGIGGELRPGIVHRLDKDTTGLLVVAKSERAMASLQEQIRDHMVQRVYWALVHGNSMPDTGRIEAPIGRHPRDRKRMAVNPKTGRDAVTYFRVLERYRGYALLECRLETGRTHQIRVHLSFIGHPVVGDPLYGPRKPHLGMPPQALHARQLSFRHPASGEWMEFTVDPPADMMAVVQRLREEA”, “soluble”.
“MQIVEAIYEDGVLKLLKNLKLKEHSKVIIKVIDEEEIEKILDSRDYLEHHHHHH”: the “soluble on expression in E. coli” value is “not soluble”.
For “MGSDKIHHHHHHMATLLLEDGTIESNLDEIARELAPLGVYIKHYDPGTSILFPHLLIQDALTDKEKCHIVDLHNSVFEFIQQENGYLWCDLLNVHPGSPNLQTLIATYAKYHTHTAPEALYVLAGEMIFGFVKPDGSQVQLLVQSQDYLHIPSGVEHWCSLTASLSFKAVRYFTAADGWVPNYTGTQLNDSLNK”, the “soluble on expression in E. coli” value was “not soluble”.
In the case of “MGSDKIHHHHHHMSIRTRSRKSTPKQPESALRRWLKERHITEVECLVPDITGNARGKIIPADKFSHDYGTRLPEGIFATTVTGDFPDDYYALTSPSDSDMHLRPDASTVRMVPWAADPTAQVIHDCYTKDGQPHELAPRNVLRRVLEAYAEVKLQPVVAPELEFFLVQKNTDPDFPLLPPAGRSGRPETARQSYSIDAVNEFDPILDLMYDYCDAMELDVDTLIHESGAAQLEVNFTHADALSRADQVFLFKRTMREAALRHGVYATFLAKPMETEPGSAMHIHQSLLHAGTGKNVFSGKREGGFSDTFAHYLGGLQKYIPMAMGLLAPNVNSYRRLMFGEVSPSNVLWGFDNRTCGLRVPIDAPQNMRVESRFAGSDANPYLAMAATLACGLLGIREKLEPTAPISSNGKEQGYDLPRSLGEALDELEGCEALKEMLGPRFVRAYISVKRKEYETFFRVISSWEREFLLLNV”, the “soluble on expression in E. coli” value is “not soluble”.
For “MGSDKIHHHHHHMMDMLIAHISDTHITNEVAFKSYAYDLIVNEINTKPFDLVVHTGDVTNNGLREEYEHASYLIKKIEKPLVVVPGNHDARNVGYELFEKYIGPLYGVYEFDNGVIIWLDSTIPDLSDGRVGGYKFKWLKEKLEAYSHKKIKIVAAHHHLVPLPDTGRERNVLFNAGDVLDLLLTHEVTLYMCGHKHVPNVYRVEDLVVDNAGCASCRKTRKGDVNSYNIVKITDKGVKVVIRRLTGDEESKEHNPIRPKIFIPRGRRLLRIVQISESNVSDRVYFRKRTLENAIKAINEKYKPDIVIHCGDVVEKGIERYYEKAMEYYEKVKGEKIIVPGHNDISYLGYELFREYFGEPEVLELGDFVFIPILSAQYETQIGVVGRTGQKMLSRMLEEFREKFRIVIMHHNLVPVPGVKEIGYLEDAGNVLKIITENETELTLTGHGGNTSAVKVEKSPIINAGSISWELHRNPFGNSFNIIDIYEDMVVAFEIQATWGSRKVLGMWKIKSEIPWL” the value was “not soluble”; for “MSILDLTKISKDSTKLQNFVKFERVKTGGLDVYMSEYSWNTKEAGTMSICDVSENTSLDYRSNHQQLLKSWISSTEKIAQLFPTTLRTFQVTPPMIAAILDLETAIPKTCDVLIIQNYVPAEMDRYQESVDQFMEKCHIREGVVLHHEVYTNSPKMFQLDYLSVTHSDWMVPSDLEEMENKIVYLDKSDFYDSDMNQFLRELKSGSSHSRLQILSIQGNSWQNYWDPSDVLEGLNAELWNQTERNQHYFLNAEHRKNFKKIADHFYPDQEDGFGAELEHGVDLSEAFDFLKNDGTRVSVRFDELILQVFVWPNEKPSRKRKAQEQGSIAKRFC”, “not soluble”.
“MGTASYPDPEIRALAEKITANATSDLEKVKAIESYLKNNYINTYVERTDVKEFLFKTKRGTAREFATAFVLLAQSIGIPARAVFGYLADPVETNQTIFASDAYVWAEVRFKEGWMEFDPAPEGRG”: the “soluble on expression in E. coli” value was “soluble”.
For the sequence “MSLTADPPACTVPAAGGSSTHKLVNGGADKLIFKIKSSNNNEYRIVPVFGFVDPSGSKDVVITRTAGAPKEDKLVVHFAPAPADATDAQAAFAAVTPAGTVTIPMSATA”, the “soluble on expression in E. coli” value is listed as “not soluble”.
On to “MNEDIDMLIIANDLKQRGRKSIISGKFIFINMANEYEYVVYPVNENKTLSVKELEEFVDFSNRIKKKGVIAIVDKYGDVTYYLLSEINLGKK”, for which the “soluble on expression in E. coli” value was “soluble”.
The result for “MRLATKDLAEAIRKGQVRKSSFNTEQLRAIEKGESKIPDYTWHHHQDTGRMQLIREGLHHDTGHIGWEAMNKGR” reads “not soluble”; that for “MGSDKIHHHHHHMVMYLENPGKLDRKFFTESILRYTGYRRPEDKVPPKNGVDTGIISIGNGKVMAVTTDPFYFDPVFGYEDSAWFAYHILASDITTAGVYPEYMTVDLNLPISISNEEIARMWKTVHEEAYKYKTSIITGHTARYANTGFPMVGGATMFGFTDDDKYVTTAMARPGDIMIMTKTAGIEAASLLTRIFPNHVKKNLGEDKYRYGFELFRKLSTVDEAIQAIEFGTRKAITSMHDATEGGLLGAVYEVAEASGNGVSIDKEAIHVDDYVKEIHSLFGIDPLRSISEGTLLMTIDPEYADEFMKRLTKSGIDSYVIGKMTTKDEGIKFKDGSEPIGEPEKDPFWYAVEKSMKMGLS”, “not soluble”.
On to “MTILFISDLHLSPLRPDITDCFIDFMQNEAIHAEKLYVLGDLFEFWIGDDDNSPFNVSIKNEFKALTEKGVKCYFIQGNRDFLLNKRFCKETGVELLDDHTVIELDGEKVLIMHGDTLCIDDIKYQEFRAKVHKPWLQWVFNRIPLFIRQRIVKNVQDKIKEKKQTKTLCIMDVTQSEVERVMQEEGVQRLIHGHTHRPDTHTFMSNNKEMTRIVLGDWYSQGSILEYSDKIYSLHKKEFK”, for which the “soluble on expression in E. coli” value is listed as “not soluble”.
With “MRVREPAVAGTFYPKDKEELNKLMDLLCGFEPKEKIKPKAILVPHAGYIYSGKTACEVYKRIEIPEKVVLLGPNHTGLGKPISVYSGDAWETPYGVVEIDGELREKILKYPYANPDEYAHLYEHSLEVQLPFLQRYARREFKILPIVVTFVEYEVAKDFGRFLGEVLKEEDALIVISSDMSHYVPAEEARKKDEILISAMERLNTEELYFKAVQYNITMCGVVPAVVGIESAKVLGATKGIVVDYSNSGDTTGDYSQVVAYLGMIFLLEHHHHHH”, the “soluble on expression in E. coli” value is “not soluble”.
With “MGSDKIHHHHHHMTQQTIYHIGTPGTPWGATEKAQWLAEQTKKRSYFDDVVSKIETFKSDFDVDQYGELAYDSGTYPLFVVRTKNWDDSKPTVLVTGGVHGYETSGVHGALRFIETKAKDYQPHFNVVVAPCLSPWGYETINRWNPAAIDPNRSFVADSPAGECAHIMNYVAGLGVDILAHIDLHETTDTDNSEFRPAKAAMDGKVNTNWNIPDGFYLVGNSEKPYPEFQKAVLDSVEEVTHIADADDENKLIGEDIAQRGVILLPTAKMGLCISFSKAEYATTTEVYPDSPKATPEQCIQAQVAAVTGGLDFLK”, the “soluble on expression in E. coli” value is listed as “not soluble”.
Consider “MGSDKIHHHHHHMSDLLEWQDLAQLPVSIFKDYVTDAQDAEKPFIWTEVFLREINRSNQEIILHIWPMTKTVILGMLDRELPHLELAKKEIISRGYEPVVRNFGGLAVVADEGILNFSLVIPDVFERKLSISDGYLIMVDFIRSIFSDFYQPIEHFEVETSYCPGKFDLSINGKKFAGLAQRRIKNGIAVSIYLSVCGDQKGRSQMISDFYKIGLGDTGSPIAYPNVDPEIMANLSDLLDCPMTVEDVIDRMLISLKQVGFNDRLLMIRPDLVAEFNRFQAKSMANKGMVSRDE”, for which the “soluble on expression in E. coli” value is listed as “not soluble”.
Turning to “MGSDKIHHHHHHMPSVKIGIIGAGSAVFSLRLVSDLCKTPGLSGSTVTLMDIDEERLDAILTIAKKYVEEVGADLKFEKTMNLDDVIIDADFVINTAMVGGHTYLEKVRQIGEKYGYYRGIDAQEFNMVSDYYTFSNYNQLKYFVDIARKIEKLSPKAWYLQAANPIFEGTTLVTRTVPIKAVGFCHGHYGVMEIVEKLGLEEEKVDWQVAGVNHGIWLNRFRYNGGNAYPLLDKWIEEKSKDWKPENPFNDQLSPAAIDMYRFYGVMPIGDTVRNSSWRYHRDLETKKKWYGEPWGGADSEIGWKWYQDTLGKVTEITKKVAKFIKENPSVRLSDLGSVLGKDLSEKQFVLEVEKILDPERKSGEQHIPFIDALLNDNKARFVVNIPNKGIIHGIDDDVVVEVPALVDKNGIHPEKIEPPLPDRVVKYYLRPRIMRMEMALEAFLTGDIRIIKELLYRDPRTKSDEQVEKVIEEILALPENEEMRKHYLKR”, the “soluble on expression in E. coli” value is “not soluble”.
“STEKEKMIAGELYRSADETLSRDRLRARQLIHRYNHSLAEEHTLRQQILADLFGQVTEAYIEPTFRCDYGYNIFLGNNFFANFDCVMLDVCPIRIGDNCMLAPGVHIYTATHPIDPVARNSGAELGKPVTIGNNVWIGGRAVINPGVTIGDNVVVASGAVVTKDVPDNVVVGGNPARIIKKL”: the “soluble on expression in E. coli” value is on record as “soluble”.
As for “MAHHHHHHMQQQQQVPVGLQLMRQPYRATAEQFQRFIVGLDAVLNQWTALHLVSQHCDLSALTSMYRELVSWFQKDGEVYSDDLEIFFENFFGEARSVIVEDDSMKEVGDVLHDMYCRCCQNDFSTVERYVASLEVYRRVNPVQLSMNVGGADDEDELAGAGAMSNTYDGVVGNEEEEMETMGDGLDMKDEVEESEQRKKRRSKKRKNAYERDADGWCVVRN”, the “soluble on expression in E. coli” value is on record as “not soluble”.
